US20220347265

Target: C3b (Complement Technology, Cat #A114), labeled with ANS (UniProt P01024)
Sequence of UniProt P01024 (P01024 whole entry, looked up): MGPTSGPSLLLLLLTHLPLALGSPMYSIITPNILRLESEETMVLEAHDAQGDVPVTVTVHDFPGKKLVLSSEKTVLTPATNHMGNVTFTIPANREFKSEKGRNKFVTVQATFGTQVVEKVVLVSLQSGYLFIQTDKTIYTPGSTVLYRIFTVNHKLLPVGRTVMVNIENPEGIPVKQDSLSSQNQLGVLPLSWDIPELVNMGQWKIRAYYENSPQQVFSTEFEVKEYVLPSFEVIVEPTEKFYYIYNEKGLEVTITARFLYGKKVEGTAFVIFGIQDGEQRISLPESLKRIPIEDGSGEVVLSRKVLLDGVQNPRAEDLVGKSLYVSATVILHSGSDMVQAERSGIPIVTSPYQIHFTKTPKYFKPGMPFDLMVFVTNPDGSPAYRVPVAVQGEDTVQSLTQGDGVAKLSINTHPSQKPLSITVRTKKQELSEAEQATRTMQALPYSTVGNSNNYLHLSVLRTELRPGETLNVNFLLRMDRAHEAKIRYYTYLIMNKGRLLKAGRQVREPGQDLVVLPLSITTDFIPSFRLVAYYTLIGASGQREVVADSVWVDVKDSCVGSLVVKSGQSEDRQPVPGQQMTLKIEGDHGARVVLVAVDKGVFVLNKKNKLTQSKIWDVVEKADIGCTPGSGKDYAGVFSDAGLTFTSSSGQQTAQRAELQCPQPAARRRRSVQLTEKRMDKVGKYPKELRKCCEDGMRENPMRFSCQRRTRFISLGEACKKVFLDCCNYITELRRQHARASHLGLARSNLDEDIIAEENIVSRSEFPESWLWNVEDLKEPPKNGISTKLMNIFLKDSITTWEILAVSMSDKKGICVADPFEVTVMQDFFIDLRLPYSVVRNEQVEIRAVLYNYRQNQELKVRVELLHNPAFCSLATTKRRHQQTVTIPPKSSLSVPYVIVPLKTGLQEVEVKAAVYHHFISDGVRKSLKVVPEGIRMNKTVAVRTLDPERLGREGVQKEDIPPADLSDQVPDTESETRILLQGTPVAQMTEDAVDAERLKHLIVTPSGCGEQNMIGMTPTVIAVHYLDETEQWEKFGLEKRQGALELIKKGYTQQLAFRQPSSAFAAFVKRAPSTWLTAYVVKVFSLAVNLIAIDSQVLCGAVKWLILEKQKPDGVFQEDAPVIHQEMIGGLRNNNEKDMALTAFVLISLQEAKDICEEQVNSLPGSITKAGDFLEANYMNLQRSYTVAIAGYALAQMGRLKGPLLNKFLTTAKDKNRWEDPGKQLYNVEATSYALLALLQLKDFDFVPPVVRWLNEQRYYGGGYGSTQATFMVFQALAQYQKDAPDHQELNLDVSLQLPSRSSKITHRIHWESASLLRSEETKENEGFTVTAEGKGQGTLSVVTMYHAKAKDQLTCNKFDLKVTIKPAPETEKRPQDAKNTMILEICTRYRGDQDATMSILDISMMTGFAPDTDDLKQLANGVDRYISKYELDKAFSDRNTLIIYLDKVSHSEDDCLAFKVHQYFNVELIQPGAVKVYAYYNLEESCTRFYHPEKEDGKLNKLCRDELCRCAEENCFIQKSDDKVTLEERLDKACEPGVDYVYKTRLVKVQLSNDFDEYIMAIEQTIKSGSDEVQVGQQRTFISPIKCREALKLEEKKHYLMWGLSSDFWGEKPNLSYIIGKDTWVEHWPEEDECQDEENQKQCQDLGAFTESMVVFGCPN

Row | Substance | fluorescence cofactor assay: cleavage of ANS-labeled C3b to iC3b (change in RFUs over time), with cofactor CFH, MCP or CR1, against wild type CFI
1 | A240G CFI protein | certain CFI mutations (G119R, A240G, and P553S) were associated with greatly reduced CFI protein function
2 | A300T CFI protein | the A300T mutation appeared to have relatively little impact on CFI function
3 | G119R CFI protein | certain CFI mutations (G119R, A240G, and P553S) were associated with greatly reduced CFI protein function
4 | P553S CFI protein | certain CFI mutations (G119R, A240G, and P553S) were associated with greatly reduced CFI protein function
